Measurements reported in patent US20200347130A1 (JIANGSU HENGRUI MEDICINE, published 2020).

Columns and labels:
[1] = biological target: T1, CD96 extracellular region with His tag (CD96-His) (human, UniProt P40200 22-519); assay: ELISA, CD96-His coated
T1 construct: also called CD96-ECD-His; Bio-CD96-His (biotin-labelled form)
T1 sequence: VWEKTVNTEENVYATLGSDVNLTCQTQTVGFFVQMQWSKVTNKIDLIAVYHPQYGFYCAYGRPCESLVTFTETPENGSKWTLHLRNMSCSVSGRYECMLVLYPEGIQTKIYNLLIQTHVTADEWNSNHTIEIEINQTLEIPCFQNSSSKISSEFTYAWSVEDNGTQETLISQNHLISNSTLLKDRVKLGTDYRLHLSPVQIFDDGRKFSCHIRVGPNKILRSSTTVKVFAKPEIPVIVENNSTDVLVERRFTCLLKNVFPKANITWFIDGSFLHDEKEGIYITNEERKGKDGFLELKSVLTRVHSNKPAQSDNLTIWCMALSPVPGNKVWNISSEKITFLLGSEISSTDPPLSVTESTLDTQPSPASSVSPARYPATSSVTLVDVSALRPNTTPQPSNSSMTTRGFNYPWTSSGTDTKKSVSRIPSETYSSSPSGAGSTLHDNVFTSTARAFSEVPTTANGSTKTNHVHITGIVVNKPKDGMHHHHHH
Procedure: The binding capacity of the anti-CD96 antibody was tested by ELISA to determine the binding of the antibody to human CD96 protein. The His-tagged CD96 fusion protein was used to coat the microtiter plate, and the intensity of the signal after adding with the antibody was used for evaluating the binding activity of the antibody and CD96. The specific experimental method is as follows:
CD96-His with the sequence of SEQ ID NO: 4 prepared in Embodiment 1 was diluted to a concentration of 2 μg/ml with PBS buffer (Shanghai Yuanpei Biotechnology Co., Ltd. Cat No. B320), pH 7.4, added to a 96-well microtiter plate (Corning, Cat No. CLS3590-100EA) at a volume of 50 μl/well, and placed in an incubator at 37° C. for 2 hours. After discarding the liquid, 250 μl/well of 5% skim milk (BD, Cat No. 232100) blocking solution diluted with PBS was added, and the plate was incubated at 37° C. for 2.5 hours or at 4° C. overnight (16-18 hours) for blocking. After blocking, the blocking solution was discarded, and the plate was washed 4 times with PBST buffer (pH 7.4 PBS containing 0.05% tween-20). 50 μl/well of different concentrations of the antibodies to be tested (hybridoma purification antibody or humanized antibody) diluted with sample dilution was added, and the plate was incubated in an incubator at 37° C. for 1 hour. […] After washing the plate 4 times with PBST, 50 μl/well of TMB chromogenic substrate (KPL, Cat No. 52-00-03) was added, and the plate was incubated at room temperature for 5-15 minutes, followed by adding 50 μl/well of 1M H₂SO₄ to stop the reaction. The absorption value was read at 450 nm with a NOVOStar microplate reader, and the EC50 value of the binding of CD96 antibody to human CD96 was calculated (see Table 13).

[2] = biological target: T1, CD96 extracellular region with His tag …; assay: SPR (Biacore), antibody captured, CD96-ECD-His as mobile phase
Text: Protein A biosensor chip was used to capture antibodies to be tested, then CD96 antigen was flowed on the surface of the chip, and real time reaction signal was detected by Biacore to obtain the binding and dissociation curve. After the dissociation of each experimental cycle was completed, the biosensor chip was washed and regenerated with a glycine-hydrochloric acid regeneration solution (pH 1.5).

[3] = biological target: T2, Full-length human CD96 on CHO-S cells (human, UniProt P40200 22-585); assay: cell ELISA, fixed CD96-overexpressing CHO-S cells
T2 construct: also called CD96-CHOs; hCD96-CHOs
T2 sequence: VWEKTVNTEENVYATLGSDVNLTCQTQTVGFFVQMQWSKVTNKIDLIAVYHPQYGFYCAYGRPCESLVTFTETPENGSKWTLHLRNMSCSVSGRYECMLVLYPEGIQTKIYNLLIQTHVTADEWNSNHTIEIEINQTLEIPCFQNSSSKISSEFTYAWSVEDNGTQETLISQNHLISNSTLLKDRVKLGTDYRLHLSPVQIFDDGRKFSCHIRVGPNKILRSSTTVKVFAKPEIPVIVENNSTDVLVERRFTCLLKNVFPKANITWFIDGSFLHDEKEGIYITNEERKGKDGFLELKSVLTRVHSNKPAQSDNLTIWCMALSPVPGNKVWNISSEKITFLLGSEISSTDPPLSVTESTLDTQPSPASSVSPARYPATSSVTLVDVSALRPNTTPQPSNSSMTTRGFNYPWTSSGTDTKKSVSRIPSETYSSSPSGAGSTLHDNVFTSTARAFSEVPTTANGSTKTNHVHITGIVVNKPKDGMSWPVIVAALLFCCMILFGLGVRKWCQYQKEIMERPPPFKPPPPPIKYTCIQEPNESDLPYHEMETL
Procedure: The binding capacity of the anti-CD96 antibody was tested by binding experiments of the antibody to human CD96 protein overexpressing CHO-S cells. The full-length CD96 plasmid was transfected into CHO-S cells by electrotransfection, and cells were then screened for two weeks under pressure for the detection of the expression of CD96. After the over-expressing cells were fixed at the bottom of the 96-well plate, the density of the signal after adding the antibody was used to judge the binding activity of the antibody to CD96 overexpressing CHO-S cells. The specific experimental method is as follows:
The cells were seeded at a density of 9×10⁴/100 μL/well in a 96-well plate and cultured overnight. After aspirating the supernatant, the plate was washed once with PBS, subsequently, 100 μl/well immunostaining fixation solution (Biyuntian, P0098) was added and fixed for one hour at room temperature, and the plate was washed three times with PBS. Once the liquid was discarded, 250 μl/well of 5% skim milk (BD, 232100) blocking solution diluted with PBS was added, and the plate was blocked in an incubator at 37° C. for 2.5 hours. After blocking, the blocking solution was discarded, the plate was washed 4 times with PBST buffer (pH 7.4 PBS containing 0.05% tween-20), followed by diluting 50 μl/well of different concentrations of the antibodies (hybridoma purification antibody or humanized antibody) to be tested the plate was incubated in an incubator at 37° C. for 2 hours. After incubation, the plate was wash 4 times with PBST. […] After washing the plate 4 times with PBST, 50 μl/well of TMB chromogenic substrate (KPL, Cat No. 52-00-03) was added, the plate was incubated at room temperature for 10-25 min, followed by adding 50 μl/well of 1M H₂SO₄ to stop the reaction. The absorption value was read at 450 nm with a NOVOStar microplate reader, and the EC50 value of the CD96 antibodies to CD96 overexpressing CHO-S cells was calculated (see FIG. 1 and Table 15).

EC50 [1]: 0.091 nM | Kd [2]: 14.9 nM | EC50 [3]: 0.02 nM
B1: h1719-014 (antibody, V domains shown)
VH: EVTLKESGPVLVKPTETLTLTCTVSGFSLSSYGVSWVRQPPGKGLEWLGVIWGDGNTNYHSVLISRLTISKDTSKSQVVLTLTNMDPVDTATYYCAKNYYYGSRYGYPLDYWGQGTTVTVSS
VL: DIQMTQSPSSVSASVGDRVTITCKATQDVGTAVAWYQQKPGKSPKLLIYWASTRHTGVPERFSGSGSGTDFTLTISSLQPEDFATYFCQQYGSSVLTFGGGTKVEIK
notes: Only variable regions are tied to this name; also called M719-014
